Measurements reported in publication PMC2115704.

Columns and labels:
Assay in all cases: SDS-PAGE in the absence of reductant
[1] = target: endogenous COS-1 cell TSP (African green monkey (endogenous in COS-1))
[2] = target: truncated TSP protein Pro449 (human)
[3] = target: truncated TSP protein Val333 (human)

truncated TSP protein Pro449 (domain or fragment), sequence (P07996 374-552): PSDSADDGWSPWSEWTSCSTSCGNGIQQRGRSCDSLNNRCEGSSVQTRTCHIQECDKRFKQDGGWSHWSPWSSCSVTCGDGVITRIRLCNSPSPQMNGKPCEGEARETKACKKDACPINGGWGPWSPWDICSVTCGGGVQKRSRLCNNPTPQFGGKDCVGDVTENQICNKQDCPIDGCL
truncated TSP protein Val333 (domain or fragment), sequence (P07996 374-552): as above

endogenous COS-1 cell TSP (natural protein)
stoichiometry N [1]: 3

truncated TSP protein Pro449 (domain or fragment)
stoichiometry N [2]: 3

truncated TSP protein Val333 (domain or fragment)
stoichiometry N [3]: 3
